Measured values published in patent US20240174746A1 (Alector, published 2024).

B1: TM-54 (antibody, V domains shown)
VH: QVQMQQSGPVLVKPGASVTLSCKASGYTFTTYDLNWVKQRPGQGLEWIGWIYPRGGSTEYNEKFKGKATLTVDTSSSTAYMELHSLTSEDSAVYFCAKYSIYAMDYWGQGTSVTVSS
VL: DVLMTQTPLSLPVSLGDQASISCRSSQSIVHGNGNTYLEWYLQKPGQSPKLLIYKVSNRFSGVPDRFSGSGSGTDFTLKISRVEAEDLGVYYCFQGSHVPWTFGGGTKLEMK
notes: Purified from mouse hybridoma
B2: TM-60 (antibody, V domains shown)
VH: QVQLQQSGPELVKPGASVKLSCKASGYTFTSYDINWVKQRPGQGLEWIGWIYPRDGNTQYIEKLKGKATLTVDTSSSTAYMELHSLTSEDSAVYFCARWIFYAMDYWGQGTSVTVSS
VL: DVLMTQTPLSLPVSLGDQASISCRSSQSIVHGNGNTYLEWYLQKPGQSPKLLIYKVSNRFSGVPDRFSGSGSGTDFTLKISRVEAEDLGVYYCFQGSHLPYTFGGGTKLEIK
notes: Purified from mouse hybridoma
B3: TM-61 (antibody, V domains shown)
VH: QVQLQQSGAELAKPGASVKLSCKASGYTFTNYWMNWVKQRPGQGLEWIGYINPSSDYTKYNQNFKDKATLTADKSSSTAYMQLNSLTYEDSAVYYCTRWGGSRSYWYFDVWGAGTTVTVSS
VL: DIVMTQSPSSLSASAGEKVTMSCKSSQSLLNSGNQKNYLAWYQQKPGQSPKLLIYGASTRESGVPDRFTGSGSGTDFTLTISSVQAEDLAVYYCQNDSNYPFTFGGGTKLEMK
notes: Purified from mouse hybridoma
B4: TM-62 (antibody, V domains shown)
VH: QVQLQQPGTELVRPGSSVKLSCKAAGYTFTRYWMHWVKQRPIQGLEWIGNIDPSDSETQYNPKFKDKATLTVDRSSSTAYMHLSSLTSEDSAVYYCARLTTLDYAMDYWGQGTSVTVSS
VL: QIVLTQSPAIMSASPGEKVTISCSASSSVSYMYWYQQKAGSSPKPWIHRTSNLASGVPARFSGSGSGTSYSLTIRSMEAEDAATYYCQQYHSYPPTFGVGTKLELK
notes: Purified from mouse hybridoma
B5: TM-63 (antibody, V domains shown)
VH: QVQLQQPGAELVKFGASVKLSCKASGYTFTSFWMHWVKQRPGQGLEWIGNIDPSDSETHYSQKFKDKATLTVDRSSNTAYIQLSSLTSEDSAVYYCARSSNWDNFDYWGQGTTVTVSS
VL: DIVMTQASPSVSVTPGESVSISCRSSQSLLHVNGNTYLYWFLQRPGRSPRLLIYRMSNLASGVPDRFSGSGSGTAFTLRISRVEAEDVGVYYCMQHLQYPFSFGSGTKLEMK
notes: Purified from mouse hybridoma
B6: TM-64 (antibody, V domains shown)
VH: QVQLQQPGAELVKPGASVKLSCKASGYTFTSYWMHWVKQRPGHGLEWIGNIDPSDSDTHYNQNFRGKATLTVDKFSTTAYMHLSSLTSEDSAVYYCARSRGGTYDYGEAMDYWGQGTSVTVSS
VL: DIVMTQAAPSVPVTPGESVSISCRSSKSLLHTNGNTYLFWFLQRPGRSPQLLIYRMSNLASGVPDRFSGSGSGTAFTLRISRVEAEDVGVYYCMQHLEYPFTFGSGTKLEIK
notes: Purified from mouse hybridoma
B7: TM-65 (antibody, V domains shown)
VH: QVQLQQPGAEFVKPGASVRLSCKTSGYTFTSSWMHWVKQRPGQGLEWIGEINPKNGGTNYNEKFKTKATLTVDKSSNTAYMQLSSLTSEDSAVYYCTIPTWFTYWGQGTLVTVSS
VL: DIQMNQSPSSLSASLGDTITITCRASQNINIWLSWYQQKPGNVPKLLIYKASNLHTGVPSRFSGSGSGTGFTLTISSLQPEDIATYYCLQGQSYPYTFGGGTKLGIK
notes: Purified from mouse hybridoma
B8: TM-66 (antibody, V domains shown)
VH: EVMLVESGGALVEPGGSLKLSCAASGITFSNYAMSWIRQTPEKRLEWVATIGSVGSYTYYPDSVKGRFTISRDNARNTLYLQMSSLRSEDTAMYYCARQEGSSHFDYWGQGTTLTVSS
VL: DVVVTQTPPSLPVSFGDQVSISCRSSQSLVNSYGKTFLSWYLHKPGQSPQLLIYGISNRFSGVPDRFSGSGSGTVFTLKISTIKPEDLGMYYCLQGTHPPLTFGAGTKLEMK
notes: Purified from mouse hybridoma
B9: TM-72 (antibody, V domains shown)
VH: QVQLQQPGAELVKPGTSVKLSCKASGSTFTNYWMHWVMQRPGQGLEWIGNIDPSDSDTHYNQKFKDRAKLTVDKSSSTAYMQLSGLTSEDSAVYYCARSRGGYYDYGEAMDYWGQGTSVTVSS
VL: DIVMTQAAPSVPVTPGESVSISCRSSKSLLHTNGNTYLFWFIQRPGQSPHLLIYRKSNLASGVPDRFSGSGSGTAFTLRISRVEAEDVGVYYCMQHLEYPFTFGSGTKLEIK
notes: Purified from mouse hybridoma
B10: TM-73 (antibody, V domains shown)
VH: QVQLQQPGAELVKPGASVKLSCKASGYTFTSHWMHWVKHRPGQGLEWIGEIDPSDSYTYYNQKFKGKATLTVDKSSSTVYMQLSSLTSEDSAVYYCARNYHGSGPPFAHWGQGTLVTVSS
VL: QIVLTQSPAIMSASPGEKVTLTCSASSGISYIYWYQQRPGSSPRLLIYDTSNLASGVPVRFSGSGSETSYSLTISRLEAEDAATYYCHQWRSYPPTFGGGTKLEIR
notes: Purified from mouse hybridoma
B11: TM-56 (antibody, V domains shown)
VH: QVHLQQSGAELAKPGASVKLSCKASGYTFTSYWMHWVKQRPGQGLEWIGYINPSSGYSKYNQRFKDKATLTADKSSTTAYMHLSSLTYADSAVYYCTREGGSISDWYFDVWGTGTTVTVSS
VL: DIEMTQAAPSVPVTPGESVSISCRSSKSLLQNNGNTYLYWFLQRPGQPPQLLIYRMSNLASGVPDRFSGSGSGTAFTLRISRVEAEDVGVYYCMQHLEYPYTFGGGTKLEIK
notes: Purified from mouse hybridoma
B12: TM-76 (antibody, V domains shown)
VH: QVTLKESGPGILQPSQTLSLTCSFSGFSLSTSGMGVSWIRKPSGKGLEWLAHIFWDDDKRYNLFLKSRLTVSKDTSSNQVFLMITSVDTTDTATYYCARMGRQRDYFDYWGQGTSLTVSS
VL: QIILTQSPAIMSASLGEEITLTCSASLSISYVHWYQQKSGASPKLLIYGTSNLASGVPSRFSGSGSGTFYSLTISSVEAEDAADYYCHQWSIYRTFGGGTKLEMK
notes: Purified from mouse hybridoma
B13: TM-78 (antibody, V domains shown)
VH: QVQLQQPGAELVKPGASVKLSCKASGYTFTNHWMHWVRQRPGQGLEWIGNIDPSDSDTHYNHKFKDKATLIVDKSSSTAYLQLSSLTSEDSAVFYCARSRGGYYDYGEAMDYWGQGTSVTVSS
VL: DIVMTQATPSIPVTPGESVSISCRSSKSLLHVNGNTYLFWFLQRPGQSPQLLIYRMSNLASGVPDRFSGSGSGTAFTLRISRVEAEDVGVYYCMQHLEYPFTFGSGTKLEIK
notes: Purified from mouse hybridoma
B14: TM-82 (antibody, V domains shown)
VH: QVQLQQSGAELVRPGTSVRVSCKASGYAFTNYLIEWIKQRPGQGLEWIGVINPGSGITDYSEKFKGKARLTADKSSSTAYMQLSSLTSDDSAVYFCTRSPFITTVVADYWGQGTTVTVSS
VL: DVVVTQTPLSLPVSFGDQVSISCRSSQSLANTYGNTYLSWYLHTPGQSPQLLIFGISNRFSGVPDRFSGSGSGTDFTLKISTIKPEDLGVYYCLQGTHPPRTFGGGTKLEMK
notes: Purified from mouse hybridoma
B15: TM-83 (antibody, V domains shown)
VH: QVQLQQPGTELVKPGALVKLSCKASGYTFTTYWIHWVKQRPGQGLEWIGNINPSNGNTKNNERFKTKATLTVDKSSSTAYMQLSSLTSEDSAVYYCVRGDYYGTSYPFWGQGTLVTVSS
VL: DVVMTQTPLSLPVSLGDQASISCRSSQSLVHSNGITYLHWYLQKPGQSPKLLIYKVSNRFSGVPDRFSGSGSGTDFTLKISRVEAEDLGVYFCSQSTHVPYTFGGGTKLEIK
notes: Purified from mouse hybridoma
B16: TM-59 (antibody, V domains shown)
VH: QVQLQQSGAELAKPGASVKLSCKASGYTFISYWMHWVKQRPGQGLEWIGYVNPSSGYTKNNQKFKDKATLTADKSSSTAYMQLSSLTYEDSAVYYCAREGGSISDWYFDVWGTGTTVTVSS
VL: DIVMTQAAPSVPVTPGESVSISCRSSKSLLHSNGNTYSYWFLQRPGQSPQLLIYRMSNLASGVPDRFSGSGSGTAFTLRISRVEAEDVGVYYCMQHLEYPYTFGGGTKLEIK
notes: Purified from mouse hybridoma
B17: TM-90 (antibody, V domains shown)
VH: QVHLQQSGPELVKPGASVKLSCKASGYPFTSYDINWVKQRPGQGLEWIGWIYPRDGNAKYNEKFKGKATLTVDTSSSTAYMELHSLTSENSAVYFCARVSDYHGGYGMDYWGQGTSVTVSS
VL: DVLMTQTPLSLPVSLGDQASISCRSSQSFVHGNGNTYLEWYLQKPGQSPKLLIYKVSHRFSGVPDRFSGSGSGTDFTLKITRVEAEDLGVYYCFQNSHVPHTFGGGTKLEIK
notes: Purified from mouse hybridoma

Columns and labels:
[1] = target: T1, cynomolgus (cyno) TMEM106B (cynomolgus, UniProt Q9NUM4 2-274 (human entry)); test: flow cytometry, HEK293 cells transiently transfected with cyno TMEM106B
T1 construct: Full-length cDNA transiently transfected into HEK293 cells
Method: (§1) For screening of the hybridoma cell culture supernatants, humanTMEM106B-transfected HEK293 cells were aliquoted in 96-well round bottom plates (2×10⁵ cells per well) and incubated with 50 μL of hybridoma cell culture supernatant on ice for 30 minutes. […] Cell sorting was performed on a FACS Canto system (BD Biosciences) or iQue (Intellicyt), with sort gates drawn to exclude dead (i.e., propidium iodide-positive) cells. Median fluorescence intensity (MFI) of anti-mouse-APC MFI on TMEM106B+ HEK293 cells was calculated for each clone, and those displaying a signal of at least 2-fold over background compared to a secondary-antibody only well were taken forward for further analysis and characterization.

[2] = target: T2, human TMEM106B (human, UniProt Q9NUM4 2-274); test: flow cytometry, HEK293 cells transiently transfected with human TMEM106B
T2 construct: Full-length cDNA transiently transfected into HEK293 cells; also called huTMEM106B
Method: as §1

[3] = target: T3, mouse TMEM106B (mouse, UniProt Q80X71 2-275); test: flow cytometry, HEK293 cells transiently transfected with murine TMEM106B
T3 construct: Full-length cDNA transiently transfected into HEK293 cells; also called muTMEM106B; murine TMEM106B
Method: as §1

Binder	fold-change in binding over parental HEK293 cells [1]	fold-change in binding over parental HEK293 cells [2]	fold-change in binding over parental HEK293 cells [3]
B1	6.27 fold	15.6 fold	1.17 fold
B2	2.63 fold	4.39 fold	0.43 fold
B3	5.15 fold	5.07 fold	0.68 fold
B4	2.93 fold	11.4 fold	0.86 fold
B5	8.24 fold	7.12 fold	0.62 fold
B6	7.12 fold	12.8 fold	1.07 fold
B7	2.15 fold	4.14 fold	1.35 fold
B8	7.13 fold	5.03 fold	4.07 fold
B9	–	3.81 fold	0.23 fold
B10	1.15 fold	2.57 fold	0.59 fold
B11	4.49 fold	9.35 fold	0.47 fold
B12	4.35 fold	6.52 fold	0.7 fold
B13	6.88 fold	9.6 fold	0.99 fold
B14	1.49 fold	–	0.88 fold
B15	–	0.42 fold	9.91 fold
B16	–	8.71 fold	0.42 fold
B17	1.32 fold	1.25 fold	–
